# Measured values reported in patent US11896644B2, “Inhibition of beta-arrestin oligomerization in tauopathy” (UNIVERSITY OF SOUTH FLORIDA, priority 2020, dated 2024).
# B1: β-arrestin2 ΔIP6N: β-arrestin2 N-terminal domain mutant (K158A, K161A, and R162A), incapable of forming oligomers; dominant negative (protein, UniProt P32121 1-409, looked up, variant K158A K161A R162A)
# Beta-arrestin-2: MGEKPGTRVFKKSSPNCKLTVYLGKRDFVDHLDKVDPVDGVVLVDPDYLKDRKVFVTLTCAFRYGREDLDVLGLSFRKDLFIATYQAFPPVPNPPRPPTRLQDRLLRKLGQHAHPFFFTIPQNLPCSVTLQPGPEDTGKACGVDFEIRAFCAKSLEEASHAANSVRLVIRKVQFAPEKPGPQPSAETTRHFLMSDRSLHLEASLDKELYYHGEPLNVNVHVTNNSTKTVKKIKVSVRQYADICLFSTAQYKCPVAQLEQDDQVSPSSTFCKVYTITPLLSDNREKRGLALDGKLKHEDTNLASSTIVKEGANKEVLGILVSYRVKVKLVVSRGGDVSVELPFVLMHPKPHDHIPLPRPQSAAPETDVPVDTNLIEFDTNYATDDDIVFEDFARLRLKGMKDDDYDDQLC
# modifications: GFP or YFP tag
# notes: dominant negative
# Legend:
# Assay type in all cases: cell-based
# [1] = target: T1, βarrestin1/βarrestin2 hetero-oligomers (UniProt P29067+P49407); experiment: PLA for βarrestin1/βarrestin2 hetero-oligomers in HeLa-V5-tau cells
# T1 construct: expressed in transfected cells; host or cells: HeLa-V5-tau cells
# Source text: (§1) FIGS. 24A to 24D show β-arrestin2 oligomerization mutants impair β-arrestin1 homo-oligomers and β-arrestin1/β-arrestin2 hetero-oligomers. HeLa-V5-tau cells were co-transfected with vector control or β-arrestin2 oligomerization mutants (ΔIP6C or ΔIP6N) together with βarrestin1-GFP+βarrestin1-myc or βarrestin2-myc. Cells were then subjected to proximity ligation assay (PLA) using antibodies against GFP and mycto detect βarrestin1 homo-oligomers (FIGS. 24A,24B) and βarrestin1/βarrestin2 hetero-oligomers and DAPI staining (FIGS. 24C,24D) (puncta).
# [2] = target: T2, βarrestin1 homo-oligomers (Homo sapiens, UniProt P49407); experiment: PLA for βarrestin1 homo-oligomers in HeLa-V5-tau cells
# T2 construct: expressed in transfected cells; host or cells: HeLa-V5-tau cells
# Source text: as §1
# [3] = test system: tau aggregates; experiment: Filter-trap assay for tau aggregates from Hela-V5-tau cells; details: vs control vector
# Source text: FIGS. 11A to 11E show β-arrestin2 oligomerization mutants reduce tau aggregates. FIG. 11A contains representative confocal images of total tau in Hela-V5-tau cells transfected with YFP, YFP-β-arrestin2 ΔIP6C, or YFP-β-arrestin2 ΔIP6N (Scale bar=10 μm). FIG. 11B contains representative confocal images of proximity ligation assay (PLA) in Hela-V5-tau cells transfected with β-arrestin2-flag and β-arrestin2-myc with YFP control, YFP-β-arrestin2 ΔIP6C, or YFP-β-arrestin2 ΔIP6N.
# When DIV 18 tau P301S cortical primary neurons were transduced with either β-arrestin2 ΔIP6C or ΔIP6N lentivirus, an approximately 50% reduction in tau compared to control was evident (FIGS. 4A,4B), which represents a key finding relevant to both mechanism of action and potential therapeutic strategies. […] Also investigated was whether β-arrestin2 oligomerization is required for slowing tau turnover by disrupting oligomerization using these mutants in several models. […] To determine whether β-arrestin2 oligomerization status alters tau aggregation itself, filter-trap assays were performed from Hela-V5-tau cells transfected with β-arrestin2 variants, in which tau aggregates from detergent-soluble and-insoluble lysates were captured by cellulose acetate membranes and assessed by immunoblotting.
# T2 sequence (P49407 whole entry): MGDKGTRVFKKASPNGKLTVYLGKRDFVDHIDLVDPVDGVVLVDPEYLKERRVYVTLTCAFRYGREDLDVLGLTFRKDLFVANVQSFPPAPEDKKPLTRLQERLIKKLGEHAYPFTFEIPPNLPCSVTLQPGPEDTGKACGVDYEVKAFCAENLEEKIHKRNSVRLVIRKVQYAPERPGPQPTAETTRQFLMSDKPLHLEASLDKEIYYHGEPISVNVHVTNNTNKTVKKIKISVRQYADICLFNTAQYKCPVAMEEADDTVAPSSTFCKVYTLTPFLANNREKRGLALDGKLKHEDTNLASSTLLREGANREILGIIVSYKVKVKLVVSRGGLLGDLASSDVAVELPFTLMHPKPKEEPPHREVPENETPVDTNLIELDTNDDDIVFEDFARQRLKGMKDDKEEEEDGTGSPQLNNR
# T2 sequence (P49407 whole entry): as above
# T1 sequence (P49407 whole entry): as above
# T1 sequence (P29067 whole entry): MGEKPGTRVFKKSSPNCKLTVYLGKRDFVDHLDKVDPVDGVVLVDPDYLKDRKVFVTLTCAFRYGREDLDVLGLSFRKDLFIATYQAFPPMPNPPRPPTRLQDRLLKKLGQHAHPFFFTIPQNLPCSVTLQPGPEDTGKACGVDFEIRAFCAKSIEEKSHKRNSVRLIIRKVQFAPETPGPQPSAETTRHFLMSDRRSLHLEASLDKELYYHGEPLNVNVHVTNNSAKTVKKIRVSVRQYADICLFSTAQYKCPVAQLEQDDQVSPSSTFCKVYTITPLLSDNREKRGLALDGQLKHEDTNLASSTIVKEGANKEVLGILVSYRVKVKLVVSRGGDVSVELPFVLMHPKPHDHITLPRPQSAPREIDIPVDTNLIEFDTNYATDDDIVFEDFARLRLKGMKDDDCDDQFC
molecule,measurement,setting,value
B1,βarrestin1/βarrestin2 hetero-oligomers (PLA puncta),[1],significantly reduce
same,βarrestin1 homo-oligomers (PLA puncta),[2],significantly reduce
same,tau aggregates in detergent-insoluble lysates (filter-trap),[3],significantly reduced tau aggregates
